Legend:
[1] = target: T1, BA46 antigen of the human milk fat globule (HMFG) (human, UniProt Q08431 24-387, limits assumed); test: competition RIA on plate-bound HMFG; reciprocal of the concentration of unlabeled antibody giving 50% binding
T1 construct: also called 46 kDa HMFG antigen; human milk fat globule preparation
T1 sequence (looked up): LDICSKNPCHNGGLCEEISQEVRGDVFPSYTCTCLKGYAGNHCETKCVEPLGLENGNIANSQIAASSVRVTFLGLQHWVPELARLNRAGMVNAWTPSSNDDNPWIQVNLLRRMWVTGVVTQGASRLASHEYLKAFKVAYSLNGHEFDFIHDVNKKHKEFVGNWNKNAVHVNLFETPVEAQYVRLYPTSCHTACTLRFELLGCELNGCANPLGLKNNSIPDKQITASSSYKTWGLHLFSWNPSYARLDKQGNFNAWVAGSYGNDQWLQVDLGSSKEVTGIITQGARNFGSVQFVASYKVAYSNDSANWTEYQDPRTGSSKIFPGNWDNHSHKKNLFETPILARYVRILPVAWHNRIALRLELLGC
Description: The protocol for the assay was as follows.
Microtiter plates (Dynatech, Chantilly, Va.) were prepared with HMFG according to standard techniques (as described by Ceriani et al., in "Monoclonal Antibodies and Functional Cell Lines" (T. J. McKern et al. eds.), pp. 398-402, New York, Plenum Press, 1984). To each well was added 25 µl ^125I-Mc3 in RIA buffer (10% bovine calf serum, 0.3% TRITON™ X-100, 0.05% sodium azide pH 7.4, in phosphate buffered saline), and competed with 25 µl of either unlabeled murine antibody or murine-human chimeric antibody in RIA buffer at final concentrations in the nanomolar range.
Iodinations were performed with ^125I (17 Ci/mg, Nordion International Inc., Kanata, Ontario, Canada). 50 µg monoclonal antibody Mc3 was labeled (at a specific activity of ~10 mCi/mg) using the chloramine T method as described by Ceriani, R. L., and Blank, E. W. (1988) *Cancer Res.* 48: 4664-4672.

[2] = target: T1, BA46 antigen of the human milk fat …; test: affinity as summarised in the description; same assay as Example 10
Description: (§1) Binding studies were conducted as outlined earlier. Briefly, microliter plates were prepared using successive layers of methylated BSA (bovine serum albumin), glutaraldehyde, and a preparation of delipidated HMFG (Ceriani R. L. et al. (1977) PNAS (USA) 74:582-586). Each well was coated with 100 ng of HMFG. Competition experiments were conducted by adding to each well a standard amount of ^125I-MuMc3 and an appropriate dilution of unlabeled MuMc3 or HuMc3 in RIA buffer (10% bovine calf serum, 0.3 TRITON X-100™), 0.05% sodium azide pH 7.4, in PBS). For the determination of affinity constants, each antibody was tested in competition against itself.

[3] = target: T1, BA46 antigen of the human milk fat …; test: competition RIA on plate-bound delipidated HMFG, each antibody tested against itself; reciprocal of the concentration giving 50% maximal binding
Description: as §1

Binder	Ka [1] [M⁻¹]	Ka [2] [M⁻¹]	Ka [3] [M⁻¹]
murine-human chimeric Mc3 antibody (ChMc3) (antibody, V domains shown, also called Chimeric antibody) VH: EVQLQQSGPELVKPGASMKISCEASGYSFTGYTMHWVKQSHGMNLEWIGLINPYNGGTVYNQKFQDKATLTVDKSSGTAYMELLSLTSEDSAVYFCARRWRYTMDYWGQGTSVTVSS VL: DIVMTQSHKFMSTSEGDWVSITCKASQDVSIGVAWYQQKPGQSPKLLIYSASSRYTGVPDRFSGSGSGTDFTFTISSVQAEDLAVYYCQQHYTSPFTFGSGTNLEIK	5e+08		
murine monoclonal antibody Mc3 (antibody, V domains shown, Whole murine monoclonal antibody from the Mc3 hybridoma, kappa light chain; As the tracer it was labelled with 125I by the chloramine T method; also called MuMc3; Mc3 murine antibody) VH: EVQLQQSGPELVKPGASMKISCEASGYSFTGYTMHWVKQSHGMNLEWIGLINPYNGGTVYNQKFQDKATLTVDKSSGTAYMELLSLTSEDSAVYFCARRWRYTMDYWGQGTSVTVSS VL: DIVMTQSHKFMSTSEGDWVSITCKASQDVSIGVAWYQQKPGQSPKLLIYSASSRYTGVPDRFSGSGSGTDFTFTISSVQAEDLAVYYCQQHYTSPFTFGSGTNLEIK	3e+08		
humanized Mc3 antibody (HuMc3) (antibody, human IgG1, V domains shown, Humanized variable regions cloned into pAH4604 (human gamma 1 constant region) and pAG4622 (human kappa constant region), so a human IgG1 kappa; also called HuMc3v2) VH: EVQLVQSGAEVKKPGASVKVSCKASGYSFTGYTMHWVKQSPGMNLEWIGLINPYNGGTVYNQKFQDKATLTVDKSTSTAYMELSSLRSEDTAVYFCARRWRYTMDYWGQGTLVTVSS VL: DIVMTQSPDSLAVSLGERATITCKASQDVSIGVAWYQQKPGQSPKLLIYSASSRYTGVPDRFSGSGSGTDFTLTISSLQAEDVAVYYCQQHYTSPFTFGSGTKVEIK		6.2e+08	6e+08

From US7390635 (CANCER RESEARCH INSTITUTE OF CONTRA COSTA, dated 2008)
